Measured values taken from the DeepSol protein solubility set.

Assay: soluble on expression in E. coli; label from the status in PepcDB or PDB records

| Sequence | soluble on expression in E. coli |
| --- | --- |
| MPAIVLIGAQWGDEGKGKATDLLGGRVQWVVRYQGGNNAGHTVVLPTGENFALHLIPSGVLTPGVTNVIGNGVVIDPGVLLNELRGLQDRGVDTAKLLISADAHLLMPYHIAIDKVTERYMGSKKIGTTGRGIGPCYQDKIARIGIRVADVLDPEQLTHKVEAACEFKNQVLVKIYNRKALDPAQVVDALLEQAEGFKHRIADTRLLLNAALEAGETVLLEGSQGTLLDVDHGTYPYVTSSNPTAGGAAVGSGIGPTRIGTVLGILKAYTTRVGSGPFPTELFDEHGEYLSKTGREFGVTTGRRRRCGWFDAVIARYAARVNGITDYFLTKLDVLSSLESVPVCVGYEIDGRRTRDMPMTQRDLCRAKPVYEELPGWWEDISGAREFDDLPAKARDYVLRLEQLAGAPVSCIGVGPGREQTIVRRDVLQDRP | not soluble |
| MSLSEKIIQLNEGIIKEELKNLVRSSVEETLNHLLDKEAEDLTNAAKYERTQERQGYRSGHYTRSLQTTSGEVTLRVPKLKGVPFETAIIERYRRRESSVEEALIEMYLAGVSVRRVEDITEALWGTKVSPGTISELNKKAYVHIENWRNRPLQDGKYPYVYVDGIYLKRNWGGEYENVSILVAIAVNQEGYREVIGAREGMKEDKASWKEFLQWLKGRGLDGVKLIVGDKCLGMLESVNEVFPEAKYQRCTVHFYRNIFSVTPRSKMKLVAKMLKAIHAQESKASAREKAKLVAEELKSMKLREAAKKLEDGIEETLTYMEFPYEHWTRIRTNNTIERLNREIRRRTRVVGTFPDGNSALMLVCARLRHVAGTQWGSKKYLNMKHLENMDSDEGHHHHHH | soluble |
| MGSDKIHHHHHHMNFLKKEPFKIFSMIYLLLDTITNRAGTERAVINLANNLHANGHRVSLVSVCTKEGEPSFQVEKGIEVHHLGIRLYGNALARKTVYFKAYRRIKALYKKREPVLLIGTNIFINTILSQISNRGRIFTIGCEHISYDIARPITKRIRGFLYSGLDAVVALTKRDQQSFEAILRGRSKAYVIPNQVSFTTVQRDATTHKQMLAIGRLTYQKGFEFMIEDASRVLRERPDWKLIIVGDGENESMLRKEIASRNMESQIEIHPSTPEIRKYYESSAIYLMTSRFEGLPMVLLEAEAYALPIISYDCPTGPRELIENGRNGFLVPMEAHEDFADKLRLLMDDETLRKKMGQESELMVKSYSPANIYECWKKLFVEIGYMN | not soluble |
| MKKRAGIWAALLLAAVMLAGCGNPADQKDSKAKQKTEVFPVTIDDASNQDVTIKKEPKKIVSLMPSNTEITYALGLGDKVVGVTTNDTYPKEVKKVEKVGDMNVNVEKVISLKPDLVLAHESSMSASADAIKQLKDAGITVLTVNDAQSFSEVYKSIEMIGEAGGAEKKADQLVKSMKSDLKDIQEKAKTISKDEEKSVFIEVSPDPDIYTTGKDTFMNEMLNVIHAKNAAADQTGWVQMTDEAIVKLNPDAIVTTDGVKAKAVEKRDGWSEINAVKHHRVYDVDPDLVTRSGPRLIEGVEELAESIYPDTFKE | not soluble |
| MSVVPVADVLQGRVAVDSEVTVRGWVRTRRDSKAGISFLAVYDGSCFDPVQAVINNSLPNYNEDVLRLTTGCSVIVTGKVVASPGQGQQFEIQASKVEVAGWVEDPDTYPMAAKRHSIEYLREVAHLRPRTNLIGAVARVRHTLAQALHRFFNEQGFFWVSTPLITASDTEGAGEMFRVSTLDLENLPRNDQGKVDFDKDFFGKESFLTVSGQLNGETYACALSKIYTFGPTFRAENSNTSRHLAEFWMLEPEVAFANLNDIAGLAEAMLKYVFKAVLEERADDMKFFAERVDKDAVSRLERFIEADFAQVDYTDAVTILENCGRKFENPVYWGVDLSSEHERYLAEEHFKAPVVVKNYPKDIKAFYMRLNEDGKTVAAMDVLAPGIGEIIGGSQREERLDVLDERMLEMGLNKEDYWWYRDLRRYGTVPHSGFGLGFERLIAYVTGVQNVRDVIPFPRTPRNASF | soluble |
| KQLEKDLLASAETLQRERHQIANALESEIKTELCDLYMDKADFKVVFTKGKFNRDGNEQVEFYISTNPGEGFKPLVKVASGGELSRLMLAIKSAFARKEDKTSIVFDEVDTGVSGRVAQAIAQKIHKIGSYGQVLAISHLPQVIAIADYQFFISKESDNETTVSRVRLLTPEERVEEIAKMLAGDNLTDAALSQARALLKVDEPV | not soluble |
| MFCDRIRGSLTKDKERIMSSKNYIDVIIDGKIYNIGGFESEAYLQKVASYINNMIAEFKQNENYRVQKVDMQRILLEINIANDYFKAKKQADLLQNDIELKEKEVYDLKHELIVSDSKAETATKELNEALEKIESLEKEIIKLQTELEK | not soluble |
| MSLKLPGKIAIMGGGSWATAIAKMCLAQEDSINWYMRRDDRIADFKRLGHNPAYLTGVKFDTKRITFSSNINDVVKESDTLIFVTPSPYLKAHLKKLKTKIKDKFIITAIKGIVPDDNVIVSEYFTKEYGVPPENIAVLAGPCHAEEVALERLSYLTIACPDKDKARIFARRLGSSFIKTSVSDDVAGIEYSSVLKNVYAIAAGICSGLKYGDNFQAVLISNAIQEMNRFLNTVHPLNRNVDDSVYLGDLLVTGYSNFSRNRTFGSMIGKGYSVKSAQIEMEMIAEGYYGTKCIKEINKHHHVNMPILDAVYNILYERISPMIEIKLLTDSFREGHHHHHH | soluble |
| MSLTLPSEKPATDVAAQCFLNALIRETTDWKLTEYPPDELIIPLDEQKSLHFRVAYFSPTQHHRFAFPARLVTASGSYPVDFTTLSRLIIDKLRHQLFLPVPLCETFHQRVLESHAHTQQAIDARHDWTALREKALNFGEAEQALLTGHAFHPAPKSHEPFNRREAERYLPDMAPHFPLRWFSVDKTQIAGESLHLNLQQRLTRFAAENAPQLLNELSDNQWLFPLHPWQGEYLLQQGWCQALVAKGLIKDLGEAGTSWLPTTSSRSLYCATSRDMIKFSLSVRLTNSIRTLSVKEVKRGMRLARLAQTDGWQMLQVRFPTFRVMQEDGWAGLLDLNGNIMQESLFALRENLLVDQPKSQTNVLVSLTQAAPDGGDSLLVSAVKRLSDRLGITVQQAAHAWVDAYCQQVLKPLFTAEADYGLVLLAHQQNILVQMLGDLPVGFIYRDCQGSAFMPHATDWLDSIGEAQAENIFTHEQLLRYFPYYLLVNSTFAVTAALGAAGLDSESNLMARVRASLAEVRDQVTHKTCLNYVLESPYWNVKGNFFCYLNDHNENTIVDPSVIYFDFANPLQAQEGHHHHHH | soluble |
| MSHKLTILPFLIKFTPKFPQSIDHDEHGLNVYAFDLDHTIIKPKSPNISFSRSASDWQFINFNSKKSTLDYLCNIIDNDPTAVIVIFSNQGGVITVPRTSKSCTKYTNKILLFLKAIKNDERGETLSHRLWLYAAPKRPKTFAANHSKITFASLGESYNNDPNIFEKVRKPMTGMVEFFKRDLESAYRVSEQISPIKLNWIYYCGDAAGRKKDFSDSDIKFAENLHVEFKYPEEIFHG | soluble |
| MKRWIAIILIALMPAAQAGKAAKVTLVVDDVPVVQVLQTLAEQERQNLVVSPDVSGTLSLHLTDVPWKQALQTVVNSAGLVLRQEGNILHVHSQAWQKEHSARQDAERLRFQANLPLENRSISLQYADAGELAKAGEKLLSAKGTIMVDKRTNRLLLRDNRAALAELEKWVSQMDLPVAQVELAAHIVTINEKSLRELGVKWTLADATQAGSVGDVTTLSSDLSVAAATSRVGFNIGRINGRLLDLELSALEQKQLLDIIASPRLLASHLQPASIKQGSEIPYQVSSGESGATSVEFKEAVLGMEVTPTVLQKGRIRLKLHISQNVPGQVLQQADGEVLAIDKQEIETQVEVKSGETLALGGIFSRKNKSGSDSVPLLGDIPWLGQLFRHDGKEDERRELVVFITPRLVATELEHHHHHH | soluble |
| MGSDKIHHHHHHKVEGNGNIITKEISVDNYSEIELGGNIEYSGNNFWGNRSNKKFPVFKYTHGRSASLKITIDENLFPLLSIKSNNGRLAIRIQDGTRIKPTQYVIEGSSKTLKYLKTSGPMDFEAQNAFSEDQLEIKISGSSDVKFPHNVKLRLGEFSVSGSGDLVFEDLDCKNLTSKVSGSGDITLKGKADEARYSVSGSGDIKAYDLSVNDLSCSVSGSGDARVYAKDNMNLSVSGSGDIRYKGPANVNKSKSGSGSIQGAN | not soluble |
| MCTDHQWINSAIRKIEADYQRSADTHLIKLDLPCVSGVDIYLKDESTHPTGSLKHRLARSLFLYGLCNGWIGPETTIIESSSGSTAVSEAYFARLLGLPFIAVMPKCTARKKIEQIQFYGGKAHLVDRSDQIYAESHRLAKELKGHYMDQFTYAERATDWRGNSNIADSIFSQMQMEQHPVPSWIVMSPGTGGTSATIGRFIRYQQYNTKLCVVDPENSVFYDYYRTRNAELTRDCGSKIEGIGRPRVEPSFIPDVVDEMRAIPDAASVATIYWLEKILGRKAGASTGTNLYGALQLACEMKRRGEQGSIVTLLCDSGERYLDTYYNSEWVKNNIGDLSKYLHKLETFSATGCLD | not soluble |
| MTEAAKKSTKKPVDDGNFDKEIISRWPDLELSQTRFMLNHPEVDSSVKEAKLEKLQETIKEFDMAPFYELVCADFKIVVDATQLAAMKAANQKKIDEITAEVEDAEKNLGESEVRQGLLRKFEYYCQIGDKDNALKAYTATYEKTVGMGYRIDVVFAMIRVGLFFLDHHLINKFITKAKELMEQGGDWERKNRLRSYEALYRMSVRDFAGAADLFLEAVPTFGSYELMTYENLILYTVITTTFALDRPDLRTKVIRCNEVQEQLTGGGLNGTLIPVREYLESYYDCHYDRFFIQLAALESERFKFDRYLSPHFNYYSRGMRHRAYEQFLTPYKTVRIDMMAKDFGVSRAFIDRELHRLIATGQLQCRIDAVNGVIEVNHRDSKNHLYKAVIKDGDILLNRIQKLARVINA | not soluble |
| MSLLEKDINLKIFKGNLIFTKTSDKFTIMKDSYIVVIDGKIASVSSNLPDKYKGNPIIDFRNNIIIPGMNDLHAHASQYKNLGIGMDKELLPWLNNYTFPEEAKFLNVDYAKKTYGRLIKDLIKNGTTRVALFATLHKDSTIELFNMLIKSGIGAYVGKVNMDYNCPDYLTENYITSLNDTEEIILKYKDKSNIVKPIITPRFVPSCSNELMDGLGKLSYKYRLPVQSHLSENLDEIAVVKSLHKKSNFYGEVYDKFGLFGNTPTLMAHCIHSSKEEINLIKRNNVTIVHCPTSNFNLGSGMMPVRKYLNLGINVVLGSDISAGHTCSLFKVIAYAIQNSKIKWQESGKKDMFLSTSEAFYMATKKGGSFFGKVGSFEEGYDFDALVINDSNLYPEDYDLTERLERFIYLGDDRNIMKRYVCGNEIFGPKFEGHHHHHH | soluble |
| MPAELLLYRSNLLGSDLTVTNFGGGNTSAKLEEMDPLTGEPVEVLWVKGSGGDIGSMKIDGFATLYQAKLLGLEAHYAGPQDDDKMVGFLPHCTFNLNCRAASIDTPLHSLLPFAHVDHVHPDAIIALAASSGGEAATKEIWGGRIGWLPWKRPGYTLGVMLRDFVKANPGVEGVMLAGHGIICWADSAKACYEHTVRLIADAAGYLNARLAEKPAFGGRLEHHHHHH | not soluble |
| MSLQLLLVDDEEDANEELAELLEGEGFCCFTASSVKMALHQLTAHPDIALVITDLRMPEESGIQLIRHLREHTSRQHLPVIVTSGHADMDDVSDLLRLHVLDLFRKPIYHVRLLETLNNLFPEPKIFQEGHHHHHH | soluble |
| MEFYGPITGEKFAFLLFRDNGEVIEFNHWSQVKEYKSELKISKSSIQIFLRNGCVYPPYTIYSNVLMLPIGTKLTIDIKNDIFKWENNFCFLDRHSKQDSKPSTSKLKTLIANSFAHLKKEVKPIYMMQSAGKDSTAMLLGLHEQGIQNVHCVTYEANFRDTESDAAKKIAESLGFEHTILFPNYEAEFDALLEYQENAVSITGDFSMLPYIAANKSVFKSDSLVIDGLGNDLYMGYVSNKLERSIMKCSLGNFSYLEPSKFTSNEVINYAISSIFMKPYERLFPGTRLSSSEIENFTDNKFIDDDAIYFSKQYNNLDKDDFRAAIRARFCDSTMFQMKAELTTNSFGNEVYFPFSNKELVDYYFNLPIEERYDKANSCNKTLLRSMLNEYVEVDDFFKVKSGFRYNMPEFITINKEKIKKEIIECDLLEQDYSNRFFAKHLDVQKVNYTSACKAYILLVFASWRNRNKLAVVDGHVADKFDWY | not soluble |
